According to patent US20020150536, “Nucleic acid ligands to integrins” (GILEAD SCIENCES, INC., published 2002):

Molecular target: integrin alphaV beta3 (Homo sapiens, UniProt P06756;P06756;P05106 P06756:31-889,P06756:891-1048,P05106:27-788)
Experiment: microtiter plate, streptavidin-AP; Mg2+, Ca2+, Mn2+, pH 7.5, 37 C
Details: label: 5'-biotin
Experimental: The affinity of individual RNAs and RNA pools for αᵥβ₃ was determined by titration of biotinylated RNA with a small quantity of immobilized integrin. Bound RNA was detected through the biotin moiety. Biotinylated RNA was prepared according to standard transcription protocols, but including a 5-fold molar excess of a 5′-biotin-modified GMP over GTP in the reaction mixture. Methods for synthesizing 5′-biotin-modified guanosine nucleotides are described in WO 98/30720 entitled “Bioconjugation of Oligonucleotides,” specifically incorporated herein by reference in its entirety. The modified nucleotide is incorporated at the 5′ end of the transcript in proportion to its representation in the guanosine pool. 96-well microtiter plates (Immulon 2, Dynatech Laboratories, Inc., Chantilly, Va.) were coated overnight at 4° C. with 100 μL purified αᵥβ₃ at a concentration of 0.25 μg/mL in 20 mM TrisHCl, pH 7.5, 150 mM NaCl, 1 mM MgCl₂, 2 mM CaCl₂, 0.1 mM MnCl₂. Coating concentrations were 0.8 μg/mL for αIIbβ₃ and 0.3 μg/mL for αᵥβ₅. Wells were blocked with 200 μL of a solution of 3% BSA in the same buffer (1 hour at room temperature) then rinsed 3 times with 200 μL binding buffer (50 mM TrisHCl, pH 7.5, 137 mM NaCl, 2.7 mM KCl, 1 mM MgCl₂, 2 mM CaCl₂, 0.1 mM MnCl₂, 0.1% BSA). Individual RNAs or RNA pools were denatured briefly at 93° C. in binding buffer without divalent cations or BSA, then serially diluted in the same buffer. 50 μL binding buffer containing 2×-concentrations of divalent cations and BSA were added to each well, followed by 50 μL RNA dilution. RNAs were allowed to incubate in the integrin-coated wells at 37° C. for 30-60 minutes. Unbound RNAs were removed by 3 rapid washes in binding buffer. To detect bound RNA, 100 μL of a 1:2500 dilution in binding buffer of streptavidin-alkaline phosphatase conjugate (Calbiochem) were incubated in each well for 30 minutes at room temperature, followed by three rapid washes, as above. 100 μL/well p-nitrophenyl phosphate (Sigma Chemical Co., St. Louis, Mo.) was added and incubated at room temperature for 30 minutes. Color development was monitored by absorbance at 405 nm.

Chain of integrin alphaV beta3 (P06756 31-889, chain 1 of 3): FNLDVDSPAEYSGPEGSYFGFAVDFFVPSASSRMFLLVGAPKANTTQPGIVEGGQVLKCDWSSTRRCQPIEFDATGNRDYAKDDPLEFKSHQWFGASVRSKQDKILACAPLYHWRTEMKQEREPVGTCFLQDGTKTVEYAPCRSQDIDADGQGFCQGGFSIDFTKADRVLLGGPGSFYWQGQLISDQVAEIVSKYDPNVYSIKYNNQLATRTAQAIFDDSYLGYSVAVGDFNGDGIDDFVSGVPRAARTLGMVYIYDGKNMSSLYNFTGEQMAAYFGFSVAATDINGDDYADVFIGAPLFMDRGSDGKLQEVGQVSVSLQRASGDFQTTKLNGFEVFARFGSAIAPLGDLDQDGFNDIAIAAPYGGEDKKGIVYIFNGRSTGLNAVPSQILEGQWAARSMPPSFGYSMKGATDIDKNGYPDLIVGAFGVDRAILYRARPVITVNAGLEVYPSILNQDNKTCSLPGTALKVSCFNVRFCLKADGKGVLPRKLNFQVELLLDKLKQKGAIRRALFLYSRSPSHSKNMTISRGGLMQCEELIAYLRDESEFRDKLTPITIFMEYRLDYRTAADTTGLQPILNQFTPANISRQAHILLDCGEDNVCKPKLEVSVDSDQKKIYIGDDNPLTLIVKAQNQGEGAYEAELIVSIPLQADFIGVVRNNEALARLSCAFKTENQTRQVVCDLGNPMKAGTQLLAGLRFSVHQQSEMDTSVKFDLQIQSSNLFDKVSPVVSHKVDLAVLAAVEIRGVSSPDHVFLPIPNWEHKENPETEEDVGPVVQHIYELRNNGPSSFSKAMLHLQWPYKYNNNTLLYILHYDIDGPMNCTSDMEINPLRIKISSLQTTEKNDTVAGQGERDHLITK
Chain of integrin alphaV beta3 (P06756 891-1048, chain 2 of 3): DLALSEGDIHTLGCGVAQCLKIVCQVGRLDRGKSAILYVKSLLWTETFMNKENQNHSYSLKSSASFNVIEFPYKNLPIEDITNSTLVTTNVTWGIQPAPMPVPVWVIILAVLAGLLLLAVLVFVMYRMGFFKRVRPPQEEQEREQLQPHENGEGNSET
Chain of integrin alphaV beta3 (P05106 27-788, chain 3 of 3): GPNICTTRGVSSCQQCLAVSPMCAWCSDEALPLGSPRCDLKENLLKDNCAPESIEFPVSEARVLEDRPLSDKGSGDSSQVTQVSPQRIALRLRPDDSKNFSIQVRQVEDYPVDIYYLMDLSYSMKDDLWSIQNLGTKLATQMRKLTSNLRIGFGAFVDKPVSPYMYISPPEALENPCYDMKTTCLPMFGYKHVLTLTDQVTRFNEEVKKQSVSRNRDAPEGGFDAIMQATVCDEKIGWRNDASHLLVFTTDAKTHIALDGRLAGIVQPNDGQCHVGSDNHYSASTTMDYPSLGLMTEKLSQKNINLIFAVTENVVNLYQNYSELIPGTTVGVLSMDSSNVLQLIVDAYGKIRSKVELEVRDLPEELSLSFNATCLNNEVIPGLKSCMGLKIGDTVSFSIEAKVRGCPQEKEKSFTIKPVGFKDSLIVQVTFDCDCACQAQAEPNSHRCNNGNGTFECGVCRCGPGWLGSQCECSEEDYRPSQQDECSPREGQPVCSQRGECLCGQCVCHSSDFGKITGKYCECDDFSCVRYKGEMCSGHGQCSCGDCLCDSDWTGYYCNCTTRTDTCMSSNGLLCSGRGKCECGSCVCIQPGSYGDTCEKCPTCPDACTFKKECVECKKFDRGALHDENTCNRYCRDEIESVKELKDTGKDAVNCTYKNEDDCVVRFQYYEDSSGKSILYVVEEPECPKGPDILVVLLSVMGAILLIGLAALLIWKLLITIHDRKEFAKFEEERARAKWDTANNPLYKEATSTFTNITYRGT

Binder | Kd [nM]
15.39 (ssRNA, 2'-F C and U) RNA: GGGAGACAAGAAUAAACGCUCAAUCAAUCUCGGACUAGACUAACGACCUUGGUUGACGCUCAUUCGACAGGAGGCUCACAACAGGC | 410
15.4 (ssRNA, 2'-F C and U) RNA: GGGAGACAAGAAUAAACGCUCAAUGAUUUCAUGACUUAUGCCGCCGGCAUGACUUCAAUGACGUUCGACAGGAGGCUCACAACAGGC | 2000
7.5 (ssRNA, 2'-F C and U) RNA: GGGAGACAAGAAUAAACGCUCAAGGUAGUAAAUGGACUCCUGCCAUCCAAUACUAUCUCUGAGUUCGACAGGAGGCUCACAACAGGC | > 1000
7.66 (ssRNA, 2'-F C and U) RNA: GGGAGACAAGAAUAAACGCUCAAGUGAACCGAUAAGCGAAAGUAGUACCCCUGCUUGACUACUUUCGACAGGAGGCUCACAACAGGC | > 1000
15.13 (ssRNA, 2'-F C and U) RNA: GGGAGACAAGAAUAAACGCUCAAGCGGGAUUUUCCUGAUCAUCCCACUGAUUCGGGGCCUUACUUCGACAGGAGGCUCACAACAGGC | 790
15.3 (17.17) (ssRNA, 2'-F C and U) RNA: GGGAGACAAGAAUAAACGCUCAAUUCAACGUUGUCCAAGGGCUUAUAUGAGCGGAUUACCCUUCGACAGGAGGCUCACAACAGGC | 8
17.13 (ssRNA, 2'-F C and U) RNA: GGGAGACAAGAAUAAACGCUCAAUUCAACGCUGUCCAAGGGCUUAUAUGGGCGGAUUACCCUUCGACAGGAGGCUCACAACAGGC | 10
17.8 (ssRNA, 2'-F C and U) RNA: GGGAGACAAGAAUAAACGCUCAAUUCAACGUUGUCUAAGGGCUUAUAUGAGCGGAUUACCCUUCGACAGGAGGCUCACAACAGGC | 18
15.7 (ssRNA, 2'-F C and U) RNA: GGGAGACAAGAAUAAACGCUCAAUUCUACGAUGUCAAAGGGCUUAUAUGAGCGGAUUACCCUUCGACAGGAGGCUCACAACAGGC | 5
17.1 (ssRNA, 2'-F C and U) RNA: GGGAGACAAGAAUAAACGCUCAAUUCAACGCUGUCAAAGGGCUUAUAUAAGCGGAUUACCCUUCGACAGGAGGCUCACAACAGGC | 380
15.8 (ssRNA, 2'-F C and U) RNA: GGGAGACAAGAAUAAACGCUCAAUUCGACGCUGUUGAAGGGCUUAUACGAGCGGAUUACCCUUCGACAGGAGGCUCACAACAGGC | 5
15.17 (ssRNA, 2'-F C and U) RNA: GGGAGACAAGAAUAAACGCUCAAUUCAACGUUGUCAAAGGGCUUAUACGGGCGGAUUACCCUUCGACAGGAGGCUCACAACAGGC | 4
15.10 (ssRNA, 2'-F C and U) RNA: GGGAGACAAGAAUAAACGCUCAAUUCAACGCUGUUCAAGGGCUUAUAUGAGCGGAUUACCCUUCGACAGGAGGCUCACAACAGGC | 20
15.14 (ssRNA, 2'-F C and U) RNA: GGGAGACAAGAAUAAACGCUCAAUUCAACAUUGUCCAAGGGCUUAUAUGAGCGGAUUACCCUUCGACAGGAGGCUCACAACAGGC | 6
15.2 (ssRNA, 2'-F C and U) RNA: GGGAGACAAGAAUAAACGCUCAAUUCAACGUUGUCAAAGGGCUUAUAUGAGCGGAUUACCCUUCGACAGGAGGCUCACAACAGGC | 6
15.34 (ssRNA, 2'-F C and U) RNA: GGGAGACAAGAAUAAACGCUCAAUCCCACCCUGCCUUGUCUGUUUGAUAGAGACACUGUCCUUUUCGACAGGAGGCUCACAACAGGC | 190
15.21 (ssRNA, 2'-F C and U) RNA: GGGAGACAAGAAUAAACGCUCAACGGUGAAGACCUCUAUUAACAACAUGACCUGCCUGCGUUGUUCGACAGGAGGCUCACAACAGGC | 200

Binder | Kd [nM]
15.43 (ssRNA, 2'-F C and U) RNA: GGGAGACAAGAAUAAACGCUCAACGCCGUUAUCACGACGUGCGUUCUGGGCGGUACUCGCGCAUUCGACAGGAGGCUCACAACAGGC | 45
15.18 (ssRNA, 2'-F C and U) RNA: GGGAGACAAGAAUAAACGCUCAAUUCAACGCUGUGAAGGGCUUAUAUGAGCGGAUUACCCUUCGACAGGAGGCUCACAACAGGC | 2
17.2 (ssRNA, 2'-F C and U) RNA: GGGAGACAAGAAUAAACGCUCAAUUCUACGCUGUGAAGGGCUUAUAUGAGCGGAUUACCCUUCGACAGGAGGCUCACAACAGGC | 2
17.7 (ssRNA, 2'-F C and U) RNA: GGGAGACAAGAAUAAACGCUCAAUUCUACGCUGUGAAGGGCUUAUACGAGCGGAUUACCCUUCGACAGGAGGCUCACAACAGGC | 6
15.50 (17.3) (ssRNA, 2'-F C and U) RNA: GGGAGACAAGAAUAAACGCUCAAUUCGACGCUGUGAAGGGCUUAUACGAGCGGAUUACCCUUCGACAGGAGGCUCACAACAGGC | 30
15.46 (17.20) (ssRNA, 2'-F C and U) RNA: GGGAGACAAGAAUAAACGCUCAAUUCGACGCUGUGAAGGGCUUAUAUGAGCGGAUUACCCUUCGACAGGAGGCUCACAACAGGC | 40
17.11 (ssRNA, 2'-F C and U) RNA: GGGAGACAAGAAUAAACGCUCAAUUCUACGCUGUGAAGGGCUUAUAUGAGCGAAUUACCCUUCGACAGGAGGCUCACAACAGGC | 4
15.5 (ssRNA, 2'-F C and U) RNA: GGGAGACAAGAAUAAACGCUCAAGCAUUCAAAAUUUGCGAGAACGAAUAGAAGUCCGAGAGCCUUCGACAGGAGGCUCACAACAGGC | 4000
17.5 (ssRNA, 2'-F C and U) RNA: GGGAGACAAGAAUAAACGCUCAAUUCGACGCUGUGAAGGGCUUAUAUGAGCGGAUACACCCUUCGACAGGAGGCUCACAACAGGC | 5
15.20 (ssRNA, 2'-F C and U) RNA: GGGAGACAAGAAUAAACGCUCAAUUCAACGCUGUCCAAGGGCUUAUAUGAGCGCAUUAUACCCUUCGACAGGAGGCUCACAACAGGC | 20
15.53 (ssRNA, 2'-F C and U) RNA: GGGAGACAAGAAUAAACGCUCAAUUCAACGCUGUCCUAGGGCUUAUAUGAGCGCAGGAUACCCUUCGACAGGAGGCUCACAACAGGC | 70
7.77 (ssRNA, 2'-F C and U) RNA: GGGAGACAAGAAUAAACGCUCAAUUCAACGAUGUUGAGGGGCUUAUAUGAGCGCAUUAUACCCUUCGACAGGAGGCUCACAACAGGC | 770
7.54 (ssRNA, 2'-F C and U) RNA: GGGAGACAAGAAUAAACGCUCAAUUCGACGCUGUUCAAGGGCUUAUAUGAGCGCGUUAUACCCUUCGACAGGAGGCUCACAACAGGC | 230
7.38 (ssRNA, 2'-F C and U) RNA: GGGAGACAAGAAUAAACGCUCAAUUCAACGCUGUCCAAGGGCUUAUAUGAGCGCGUUAUACCCUUCGACAGGAGGCUCACAACAGGC | 49
7.41 (ssRNA, 2'-F C and U) RNA: GGGAGACAAGAAUAAACGCUCAAGCGAGCCUAUUGUCUAAGAUGCACCAGGCCUGUUAAGCAUUUCGACAGGAGGCUCACAACAGGC | > 1000
15.19 (ssRNA, 2'-F C and U) RNA: GGGAGACAAGAAUAAACGCUCAAUGUAGCCGCAUGUCGAGCAGCAAUUCCUGCCAUUGUAGGUUCGACAGGAGGCUCACAACAGGC | 770
7.13 (ssRNA, 2'-F C and U) RNA: GGGAGACAAGAAUAAACGCUCAAUGUAGUCGCAUGUCGAGCAGCAAUUCCUGCCAUUGUAGGUUCGACAGGAGGCUCACAACAGGC | > 1000
